Measurements as given in patent US20220213196A1 (GRITSTONE BIO, published 2022).
Numbering of substitutions follows the chain as printed.

B1: scFv G8-P2C11 (scFv, V domains shown)
VH: QVQLVQSGAEVKKPGASVKVSCKASGYTFTSYAMNWVRQAPGQGLEWMGWINPNSGGTNYAQKFQGRVTMTRDTSTSTVYMELSSLRSEDTAVYYCARDPFWSGHYYYYGMDVWGQGTTVTVSS
VL: not shown
B2: scFv G8-P1A06 (scFv, V domains shown)
VH: QVQLVQSGAEVKKPGASVKVSCKASGYTFTNYYMHWVRQAPGQGLEWMGWMNPIGGGTGYAQKFQGRVTMTRDTSTSTVYMELSSLRSEDTAVYYCARVYDFWSVLSGFDIWGQGTLVTVSS
VL: DIQMTQSPSSLSASVGDRVTITCRASQAISNSLAWYQQKPGKAPKLLIYAASTLQSGVPSRFSGSGSGTDFTLTISSLQPEDFATYYCGQSYSTPPTFGQGTKLEIK
B3: scFv R3G8-P2E04 (scFv, V domains shown)
VH: QVQLVQSGAEVKKPGSSVKVSCKASGGTFSSYGVSWVRQAPGQGLEWMGWISPYSGNTDYAQKFQGRVTITADESTSTAYMELSSLRSEDTAVYYCARGLYYMDVWGKGTTVTVSS
VL: B2 VL with A28S, N31S, S32W, A50D, T53N, Q55E, S56T, G89Q, P96L, Q100G
B4: scFv R3G10-P1F06 (scFv, V domains shown)
VH: QVQLVQSGAEVKKPGASVKVSCKASGYTFIGYYMHWVRQAPGQGLEWMGMIGPSDGSTSYAQKFQGRVTMTRDTSTSTVYMELSSLRSEDTAVYYCARDSSGLDPWGQGTLVTVSS
VL: B2 VL with A28S, S32Y, A34N, A50K, T53S, Q55E, G89Q, S93I, T94I, P96Y
B5: scFv G8-P1A04 (scFv, V domains shown)
VH: QVQLVQSGAEVKKPGASVKVSCKASGYPFIGQYLHWVRQAPGQGLEWMGIINPSGDSATYAQKFQGRVTMTRDTSTSTVYMELSSLRSEDTAVYYCARDLSYYYGMDVWGQGTTVTVSS
VL: DIQMTQSPSSLSASVGDRVTITCWASQGISSYLAWYQQKPGKAPKLLIYAASSLQSGVPSRFSGSGSGTDFTLTISSLQPEDFATYYCQQSYNTPWTFGPGTKVDIK
B6: scFv R3G8-P2C10 (scFv, V domains shown)
VH: QVQLVQSGAEVKKPGASVKVSCKASGYTFTSYYMHWVRQAPGQGLEWMGWINPYSGGTNYAQKFQGRVTMTRDTSTSTVYMELSSLRSEDTAVYYCAKGGIYYGSGSYPSWGQGTLVTVSS
VL: B2 VL with A28D, I29V, N31T, S32W, T53S, G89Q, Y92H, P96Q, L104V
B7: scFv G8-P1D02 (scFv, V domains shown)
VH: EVQLLESGGGLVQPGGSLRLSCAASGFTFSSYWMSWVRQAPGKGLEWVSSISGRGDNTYYADSVKGRFTISRDNSKNTLYLQMNSLRAEDTAVYYCARASGSGYYYYYGMDVWGQGTTVTVSS
VL: B5 VL with W24Q, G28D, S31N, A34N, N93S, T94A, W96Y, P100G, D105E
B8: scFv R3G10-P1A07 (scFv, V domains shown)
VH: EVQLLESGGGLVKPGGSLRLSCAASGFTFSSYWMSWVRQAPGKGLEWVSGISARSGRTYYADSVKGRFTISRDDSKNTLYLQMNSLKTEDTAVYYCARDQDTIFGVVITWFDPWGQGTLVTVSS
VL: B2 VL with A28G, S32Y, T53S, S56G, G89Q, S91Y, Y92F, S93T, P96Y
B9: scFv G8-P2E06 (scFv, V domains shown)
VH: QVQLVQSGAEVKKPGASVKVSCKASGYTLTTYYMHWVRQAPGQGLEWMGWINPNSGGTNYAQKFQGRVTMTRDTSTSTVYMELSSLRSEDTAVYYCARAVYYDFWSGPFDYWGQGTLVTVSS
VL: B2 VL with A28G, T53S, G89Q, S91A, Y92N, T94F, P96W
B10: scFv G8-P1B03 (scFv, V domains shown)
VH: EVQLLESGGGLVQPGGSLRLSCAASGFTFSDYYMSWVRQAPGKGLEWVSGINWNGGSTGYADSVKGRFTISRDNSKNTLYLQMNSLRAEDTAVYYCARVEQGYDIYYYYYMDVWGKGTTVTVSS
VL: B5 VL with W24R, G28S, A34N, A50K, Q55E, N93S, T94A, W96Y
B11: scFv G8-P1C11 (scFv, V domains shown)
VH: QVQLVQSGAEVKKPGASVKVSCKASGGTLSSYPINWVRQAPGQGLEWMGWISTYSGHADYAQKLQGRVTMTRDTSTSTVYMELSSLRSEDTAVYYCARSYDYGDYLNFDYWGQGTLVTVSS
VL: B5 VL with W24Q, G28D, S31N, A34N, N93S, T94I, W96P, P100G
B12: scFv R3G8-P5C03 (scFv, V domains shown)
VH: QVQLVQSGAEVKKPGASVKVSCKASGYTFTSYYMHWVRQAPGQGLEWMGWMNPNSGNTGYAQKFQGRVTMTRDTSTSTVYMELSSLRSEDTAVYYCARGLLGFGEFLTYGMDVWGQGTLVTVSS
VL: B2 VL with A28G, S32W, G89Q, S91T, P96W
B13: scFv R3G10-P1H01 (scFv, V domains shown)
VH: B4 VH with I30T, D99G, S100V, S101G, G102N, P105Y
VL: B2 VL with A28S, S32Y, A34N, T53S, G89H, S91T, P96L, L104V
B14: scFv R3G8-P4F05 (scFv, V domains shown)
VH: QVQLVQSGAEVKKPGASVKVSCKASGYTFSNMYLHWVRQAPGQGLEWMGWINPNTGDTNYAQTFQGRVTMTRDTSTSTVYMELSSLRSEDTAVYYCARGLYGDYFLYYGMDVWGQGTKVTVSS
VL: B2 VL with A28G, S32Y, G89Q, P96L, Q100G, L104V
B15: scFv G8-P2B05 (scFv, V domains shown)
VH: EVQLLESGGGLVQPGGSLRLSCAASGFDFSIYSMNWVRQAPGKGLEWVSAISGSGGSTYYADSVKGRFTISRDNSKNTLYLQMNSLRAEDTAVYYCASNGNYYGSGSYYNYWGQGTLVTVSS
VL: DIQMTQSPSSLSASVGDRVTITCRASQSISRWLAWYQQKPGKAPKLLIYAASSLQSGVPSRFSGSGSGTDFTLTISSLQPEDFATYYCQQYSTYPITIGQGTKVEIK
B16: scFv R3G10-P1B07 (scFv, V domains shown)
VH: QVQLVQSGAEVKKPGASVKVSCKASGYTFTSYYMHWVRQAPGQGLEWMGIIHPGGGTTSYAQKFQGRVTMTRDTSTSTVYMELSSLRSEDTAVYYCARDKVYGDGFDPWGQGTLVTVSS
VL: B15 VL with Y49F, A50D, S53R, Y91A, S92E, T93A, Y94F, I96Y, I98F
B17: scFv R3G8-P5G08 (scFv, V domains shown)
VH: B14 VH with S30T, N31S, M32N, L34M, I51M, T55S, D57N, N59G, T63K, K118T
VL: not shown
B18: scFv G8-P1H08 (scFv, V domains shown)
VH: QVQLVQSGAEVKKPGASVKVSCKASGYTFGNYFMHWVRQAPGQGLEWMGMVNPSGGSETFAQKFQGRVTMTRDTSTSTVYMELSSLRSEDTAVYYCAASTWIQPFDYWGQGTLVTVSS
VL: DIQMTQSPSSLSASVGDRVTITCRASQGINSYLAWYQQKPGKAPKLLIYDASNLETGVPSRFSGSGSGTDFTLTISSLQPEDFATYYCQQHNSYPPTFGQGTKLEIK
B19: scFv G8-P1C01 (scFv, V domains shown)
VH: QVQLVQSGAEVKKPGASVKVSCKASGGTFSSHAISWVRQAPGQGLEWMGVIIPSGGTSYTQKFQGRVTMTRDTSTSTVYMELSSLRSEDTAVYYCARGDYYDSSGYYFPVYFDYWGQGTLVTVSS
VL: B18 VL with G28N, N30Y, S31T, A34N, H91A, S93G, Y94F, P96L, Q100G, L104V
B20: scFv R3G10-P1E12 (scFv, V domains shown)
VH: B4 VH with T28I, I30T, D99E, S100D, S101D, G102S, L103M, P105V, Q108K, L111T
VL: not shown
B21: scFv R3G10-P4E12 (scFv, V domains shown)
VH: B4 VH with I30T, K63R, D99E, S100E, S101D, L103M, P105V, L111T
VL: B18 VL with N30S, S31T, N53S, E55Q, T56S, H91Y, N92Y, P96W, K103R
B22: scFv G8-P1A03 (scFv, V domains shown)
VH: QVQLVQSGAEVKKPGASVKVSCKASGGTFSRSAITWVRQAPGQGLEWMGWINPNSGATNYAQKFQGRVTMTRDTSTSTVYMELSSLRSEDTAVYYCARDDYGDYVAYFQHWGQGTLVTVSS
VL: DIQMTQSPSSLSASVGDRVTITCRASQSITSYLNWYQQKPGKAPKLLIYDASNLETGVPSRFSGSGSGTDFTLTISSLQPEDFATYYCQQNYNSVTFGQGTKLEIK
B23: scFv R3G8-P5F02 (scFv, V domains shown)
VH: QVQLVQSGAEVKKPGASVKVSCKASGYTFTGYYIHWVRQAPGQGLEWMGVINPSGGSTTYAQKLQGRVTMTRDTSTSTVYMELSSLRSEDTAVYYCARDRDSSWTYYYYGMDVWGQGTTVTVSS
VL: EIVMTQSPATLSVSPGERATLSCRASQSVGNSLAWYQQKPGQAPRLLIYGASTRATGIPARFSGSGSGTEFTLTISSLQSEDFAVYYCQQYGSSPYTFGQGTKVEIK

Key:
[1] = target: T1, HLA-A*02:01_… (HLA-PEPTIDE target G8), recombinant soluble complex (human, UniProt P04439 25-297 at identity 0.94); P61769 21-119, enzymatically biotinylated (BirA) for screening and functional assays); experiment: scFv PPE ELISA
T1 construct: Also crystallised with Fab G8-P1C11

[2] = target: HLA-A*01:01_… (HLA-PEPTIDE target G10), recombinant soluble complex (human, UniProt P04439-2 25-297; P61769 21-119, enzymatically biotinylated (BirA) for screening and functional assays); experiment: scFv PPE ELISA

Binder	fold binding to target pHLA over minipool of negative control pHLAs [1] [fold]	fold binding to target pHLA over minipool of negative control pHLAs [2] [fold]
B1	≥ 3	–
B2	≥ 3	–
B3	≥ 3	–
B4	–	≥ 3
B5	≥ 3	–
B6	≥ 3	–
B7	≥ 3	–
B8	–	≥ 3
B9	≥ 3	–
B10	≥ 3	–
B11	≥ 3	–
B12	≥ 3	–
B13	–	≥ 3
B14	≥ 3	–
B15	≥ 3	–
B16	–	≥ 3
B17	≥ 3	–
B18	≥ 3	–
B19	≥ 3	–
B20	–	≥ 3
B21	–	≥ 3
B22	≥ 3	–
B23	≥ 3	–
